Here are results for 1 molecule from patent US20260083725A1, “SIGMARI LIGAND FOR THE TREATMENT OF PANCREATIC CANCER” (INSTITUT NATIONAL DE LA SANTÉ ET DE LA RECHERCHE MÉDICALE, priority 2022, published 2026).

In the assay the test system is SK2 channel. The experiment in a line: Whole cell patch clamp recording of SK2 current in pancreatic cancer cells. As to conditions: cells treated without CAF-CM; EGF 25 ng/mL overnight. Format: cell-based, human. The protocol: Electrophysiological recordings in HEK293-T, PANC-1 and MiaPaCa-2 cells were performed in the whole cell configuration of the patch clamp technique at room temperature. Cells were bathed in a solution containing: 5 mM KCl, 145 mM NaCl, 1 mM MgCl2, 2 mM CaCl2, and 10 mM Hepes (pH adjusted to 7.4 with HCl, 300 mosm/L). Soft glass patch electrodes (Brand, Wertheim, Germany) were made on a horizontal pipette puller (P-97, Sutter Instrument Co., Novato, CA) to achieve a final resistance ranging from 3 to 5 MΩ. The internal solution was: 145 mM KCl, 1 mM MgCl2, 0.87 mM CaCl2, 1 mM EGTA, 10 mM Hepes, 1 mM ATP (pH adjusted to 7.2 with KOH, 308 mosm/L, pCa 6). Recordings were performed at room temperature in the voltage clamp mode using an PC-controlled EPC 9 patch-clamp amplifier (HEKA, Lambrecht/Pfalz, Germany). Currents were acquired and analyzed with Pulse and Pulsefit software (HEKA). Signal were filtered at 10 kHz and digitalized at 20 kHz. Currents were elicited by voltage ramps protocols (from −120 to +60 mV). Current density was measured at 0 mV. For the electrophysiological study of the SK2 mutations, HEK293-T were transfected with the different constructions and the HA-myr-AKT using calcium phosphate and recorded 24 h after transfection.
A general note: Patch clamp records ionic current or voltage across a cell membrane.

B1: EGF: EGFR ligand; growth factor applied to cells at 25 ng/mL (protein, UniProt P01133 23-1207, looked up)
Pro-epidermal growth factor: PQHWSCPEGTLAGNGNSTCVGPAPFLIFSHGNSIFRIDTEGTNYEQLVVDAGVSVIMDFHYNEKRIYWVDLERQLLQRVFLNGSRQERVCNIEKNVSGMAINWINEEVIWSNQQEGIITVTDMKGNNSHILLSALKYPANVAVDPVERFIFWSSEVAGSLYRADLDGVGVKALLETSEKITAVSLDVLDKRLFWIQYNREGSNSLICSCDYDGGSVHISKHPTQHNLFAMSLFGDRIFYSTWKMKTIWIANKHTGKDMVRINLHSSFVPLGELKVVHPLAQPKAEDDTWEPEQKLCKLRKGNCSSTVCGQDLQSHLCMCAEGYALSRDRKYCEDVNECAFWNHGCTLGCKNTPGSYYCTCPVGFVLLPDGKRCHQLVSCPRNVSECSHDCVLTSEGPLCFCPEGSVLERDGKTCSGCSSPDNGGCSQLCVPLSPVSWECDCFPGYDLQLDEKSCAASGPQPFLLFANSQDIRHMHFDGTDYGTLLSQQMGMVYALDHDPVENKIYFAHTALKWIERANMDGSQRERLIEEGVDVPEGLAVDWIGRRFYWTDRGKSLIGRSDLNGKRSKIITKENISQPRGIAVHPMAKRLFWTDTGINPRIESSSLQGLGRLVIASSDLIWPSGITIDFLTDKLYWCDAKQSVIEMANLDGSKRRRLTQNDVGHPFAVAVFEDYVWFSDWAMPSVMRVNKRTGKDRVRLQGSMLKPSSLVVVHPLAKPGADPCLYQNGGCEHICKKRLGTAWCSCREGFMKASDGKTCLALDGHQLLAGGEVDLKNQVTPLDILSKTRVSEDNITESQHMLVAEIMVSDQDDCAPVGCSMYARCISEGEDATCQCLKGFAGDGKLCSDIDECEMGVPVCPPASSKCINTEGGYVCRCSEGYQGDGIHCLDIDECQLGEHSCGENASCTNTEGGYTCMCAGRLSEPGLICPDSTPPPHLREDDHHYSVRNSDSECPLSHDGYCLHDGVCMYIEALDKYACNCVVGYIGERCQYRDLKWWELRHAGHGQQQKVIVVAVCVVVLVMLLLLSLWGAHYYRTQKLLSKNPKNPYEESSRDVRSRRPADTEDGMSSCPQPWFVVIKEHQDLKNGGQPVAGEDGQAADGSMQPTSWRQEPQLCGMGTEQGCWIPVSSDKGSCPQVMERSFHMPSYGTQTLEGGVEKPHSLLSANPLWQQRALDPPHQMELTQ
modifications: Pro-epidermal growth factor
notes: EGFR ligand; growth factor applied to cells at 25 ng/mL
In the case of B1, the SK2 current entry is “significant increase”.
